Test results as given in article PMC6145688 (2018).

B1: SDC4-derived peptide VS52 (protein)
chain: VHPLVPLDNHIPERAGSGSQVPTEPKKLEENEVIPKRISPVEESEDVSNKVS

Each binder was assayed against Recombinant active autotaxin-β (ATXβ) (Homo sapiens (Human), UniProt Q13822) (assay: SPR).

Binding result, no binding:
RETEVIDPQDLLEGRYFSGALPDDED (protein) [SDC4-derived peptide RD26]
GALPDDEDVVGPGQESDDFEL (protein) [SDC4-derived peptide GL21]
B1
